Data on 2 molecules can be found in paper PMC3771910, “The Crystal Structure and RNA-Binding of an Orthomyxovirus Nucleoprotein” (PLoS Pathogens, 2013).

Data set [1] has as its target ISAV-NP ΔC16 (aa 1–600) (infectious salmon anemia virus (ISAV)). The experiment in a line: SEC; gel filtration chromatography (Superdex 200) of purified recombinant NP; size estimated against three protein standards.
The target is the same in data set [2]. The data set is described as follows: negative-staining electron microscopy; NP mixed with 24-nt RNA at 2:1 protein:RNA molar ratio in 100 mM NaCl, 25 mM HEPES pH 7.5, 25°C 30 min, purified by gel filtration before use.
Data set [3] concerns the molecule itself. The experiment in a line: SEC; gel filtration chromatography (Superdex 200) of purified recombinant NP; size estimated against three protein standards.

As to “ISAV-NP ΔC16 (aa 1–600) (domain or fragment)”, the stoichiometry N in data set [1] and in data set [2] was 2 in each case.

B1: infectious salmon anemia virus nucleoprotein, full-length (aa 1–616) (natural protein)
chain: MADKGMTYSFDVRDNTLVVRRSTATKSGIKISYREDRGTSLLQKAFAGTEDEFWVELDQDVYVDKKIREFLVEEKMKDMSTRVSGAVAAAIERSVEFDNFSKEAAANIEMAGVDDEEAGGSGLVDNRRKNKGVSNMAYNLSLFIGMVFPALTTFFSAILSEGEMSIWQNGQAIMRILALADEDGKRQTRTGGQRVDMADVTKLNVVTANGKVKQVEVNLNDLKAAFRQSRPKRSDYRKGQGSKATESSISNQCMALIMKSVLSADQLFAPGVKMMRTNGFNASYTTLAEGANIPSKYLRHMRNCGGVALDLMGMKRIKNSPEGAKSKIFSIIQKKVRGRCRTEEQRLLTSALKISDGENKFQRIMDTLCTSFLIDPPRTTKCFIPPISSLMMYIQEGNSVLAMDFMKNGEDACKICREAKLKVGVNSTFTMSVARTCVAVSMVATAFCSADIIENAVPGSERYRSNIKANTTKPKKDSTYTIQGLRLSNVRYEARPETSQSNTDRSWQVNVTDSFGGLAVFNQGAIREMLGDGTSETTSVNVRALVKRILKSASERSARAVKTFMVGEQGKSAIVISGVGLFSIDFEGVEEAERITDMTPEIEFDEDDEEEEDIDI
notes: Nucleoprotein (NP) of infectious salmon anemia virus (ISAV), aa 1-616; Dimer in solution; also called ISAV-NP; wt NP; source: E. coli Rosetta 2 (DE3), purified (HisTrap HP, HiTrap Heparin HP, Superdex 200)
B1: the “stoichiometry N” value in data set [3] was 2.
